Tests used:
[1] = molecular target: rat NPY Y5 receptor, clone Y217.24.13.6B (rat); test: competition with [125I]PYY, membranes of transfected COS-7 cells; second individual value in brackets
[2] = molecular target: rat NPY Y5 receptor, clone Y217.24.13.6B (rat); test: competition with [125I]PYY, membranes of transfected COS-7 cells; first individual value in brackets
[3] = molecular target: rat NPY Y5 receptor, clone Y861 (rat); test: competition with [125I]PYY, membranes of transfected COS-7 cells
Rat Y1 (clone) (rat) = Rat Y1 (clone) (rat) (UniProt P21555); test: competition with [125I]PYY on the rat Y1 clone
Rat Y2 (clone) (rat) = test: competition with [125I]PYY on the rat Y2 clone
Rat Y4/PP1 (clone) (rat) = Rat Y4/PP1 (clone) (rat) (UniProt Q63447); test: competition with rat [125I]PP on the rat Y4/PP1 clone
Chain of Rat Y4/PP1 (clone) (rat) (Q63447 whole entry): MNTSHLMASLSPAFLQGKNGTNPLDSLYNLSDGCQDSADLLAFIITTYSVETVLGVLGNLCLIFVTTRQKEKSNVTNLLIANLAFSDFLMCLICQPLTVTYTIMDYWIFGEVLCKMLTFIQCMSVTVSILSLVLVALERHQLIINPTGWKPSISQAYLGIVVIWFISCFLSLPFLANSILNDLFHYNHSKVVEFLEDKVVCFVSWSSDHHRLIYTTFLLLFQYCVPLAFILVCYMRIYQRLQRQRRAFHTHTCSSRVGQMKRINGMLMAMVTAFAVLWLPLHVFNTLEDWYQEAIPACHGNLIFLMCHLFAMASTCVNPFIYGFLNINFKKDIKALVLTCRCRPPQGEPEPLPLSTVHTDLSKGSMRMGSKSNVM

[4] = molecular target: rat NPY Y5 receptor, clone Y555 (rat); test: competition with [125I]PYY, membranes of transfected COS-7 cells; average of two experiments
[5] = molecular target: rat NPY Y5 receptor, clone Y555 (rat); test: competition with [125I]PYY, membranes of transfected COS-7 cells; second individual value in brackets
[6] = molecular target: rat NPY Y5 receptor, clone Y555 (rat); test: competition with [125I]PYY, membranes of transfected COS-7 cells; first individual value in brackets

| IC50 (Rat Y1 (clone) (rat)) [nM] | IC50 (Rat Y2 (clone) (rat)) [nM] | further results | Substance |
| --- | --- | --- | --- |
| – | – | IC50 [1]: 0.69 nM; IC50 [2]: 0.65 nM; IC50 [3]: 2 nM | h(Leu^31 Pro^34)PYY (from UniProt P10082) (peptide) |
| > 1000 | > 1000 | IC50 [3]: > 1000 nM | (1-24)NPY (peptide) |
| – | 0.5 | – | r/h(2-36)NPY (from UniProt P01303) (peptide) |
| – | 0.42 | – | r/h(10-36)NPY (from UniProt P01303) (peptide) |
| – | 0.079 | – | rPYY (from UniProt P10631) (peptide) |
| – | – | IC50 (Rat Y4/PP1 (clone) (rat)): > 1000 nM | r/hNPY, P01303 (peptide; other documents disagree on this pair) |
| – | 1.3 | – | p(13-36)NPY (from UniProt P01304) (peptide) |
| – | > 1000 | – | rPP (from UniProt P06303) (peptide) |
| 0.15 | 150 | – | p(Leu^31 Pro^34)NPY (from UniProt P01304) (peptide) |
| – | – | IC50 [4]: 0.96 nM; IC50 [5]: 0.92 nM; IC50 [6]: 1 nM | r/h(LP)NPY (from UniProt P01303) (peptide) |
| > 1000 | – | IC50 [3]: 7 nM | r/h(32D-Trp)NPY (from UniProt P01303) (peptide) |
| – | 0.24 | – | r/hNPY (from UniProt P01303) (peptide) |
| 44 | 154 | – | r/h(Leu^31 Pro^34)(3-36)NPY (from UniProt P01303) (peptide) |
